The values that follow come from paper doi:10.1101/2023.07.17.549218.

For data set [1], the target named is HK97 small terminase (bacteriophage HK97). In words: cryo-EM structure; small terminase with 31 bp dsDNA (cos 7-37), 1:2 protein to DNA, 25 mM Tris-HCl pH 7.5, 200 mM NaCl, 10 mM MgCl2; complex purified on S200 10/30; nonamer.
For data set [2], the target named is HK97 small terminase Arg5Ala mutant (bacteriophage HK97). In words: SEC; size exclusion chromatography of the purified mutant proteins (Supplementary Fig. 12); nonamer. For orientation: Size exclusion chromatography separates by hydrodynamic size, large species first.
Data set [3] addresses HK97 small terminase Arg7Ala mutant (bacteriophage HK97). Described as above.
The target of data set [4] is HK97 small terminase Arg107Ala mutant (bacteriophage HK97). The data set is described as above.
Data set [5] has as its target HK97 small terminase Arg114Ala mutant (bacteriophage HK97). The description is as above.
The target in data set [6] is HK97 small terminase Lys4Ala mutant (bacteriophage HK97). The data set is described as above.
The target in data set [7] is HK97 small terminase Lys4Ala/Arg5Ala/Arg7Ala triple mutant (bacteriophage HK97). The description is as above.
Data set [8] deals with HK97 small terminase Lys100Ala mutant (bacteriophage HK97). The description is as above.
Data set [9] addresses T1, HK97 small terminase WT (bacteriophage HK97) (UniProt Q9MBW4).
T1 sequence: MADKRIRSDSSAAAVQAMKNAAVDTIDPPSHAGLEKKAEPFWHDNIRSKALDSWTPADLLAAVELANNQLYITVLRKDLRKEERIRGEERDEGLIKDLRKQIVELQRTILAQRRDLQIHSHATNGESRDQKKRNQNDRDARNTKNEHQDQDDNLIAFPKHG
In words: MST. To be noted: 25 mM Tris-HCl pH 7.5, 200 mM NaCl, 10 mM MgCl2; EMSA: 3 h at RT, gel at 4 C, 1 uM protein with 2 uM unlabelled or 30 nM labelled DNA; MST: +0.005-0.01% Tween …. Background: A gel shift assay detects complexes by their altered migration in electrophoresis.

Data set [10] concerns HK97 small terminase K4A/R5A/R7A (bacteriophage HK97). In words: MST. As to conditions: 25 mM Tris-HCl pH 7.5, 200 mM NaCl, 10 mM MgCl2; EMSA: 3 h at RT, gel at 4 C, 1 uM protein with 2 uM unlabelled or 30 nM labelled DNA; MST: +0.005-0.01% Tween ….
Data set [11] deals with HK97 small terminase R107A (bacteriophage HK97). In words: MST. As to conditions: 25 mM Tris-HCl pH 7.5, 200 mM NaCl, 10 mM MgCl2; EMSA: 3 h at RT, gel at 4 C, 1 uM protein with 2 uM unlabelled or 30 nM labelled DNA; MST: +0.005-0.01% Tween ….

Broadly, the stoichiometry N is a count of units in the complex or per binding partner. The Kd is the constant that tells how readily two partners part at equilibrium. The low end stands for higher affinity, the high end for lower affinity.

In data set [1], HK97 small terminase (natural protein) gave a stoichiometry N of 9.
The substance “HK97 small terminase Arg5Ala mutant (natural protein)” registered a stoichiometry N in data set [2] of 9.
Take “HK97 small terminase Arg7Ala mutant (natural protein)”: the stoichiometry N in data set [3] stood at 9.
On to “HK97 small terminase Arg107Ala mutant (natural protein)”, for which the stoichiometry N in data set [4] worked out at 9.
In the case of “HK97 small terminase Arg114Ala mutant (natural protein)”, the stoichiometry N in data set [5] stood at 9.
In data set [6], “HK97 small terminase Lys4Ala mutant (natural protein)” returned a stoichiometry N of 9.
“HK97 small terminase Lys4Ala/Arg5Ala/Arg7Ala triple mutant (natural protein)” gave a stoichiometry N in data set [7] of 9.
In data set [8], “HK97 small terminase Lys100Ala mutant (natural protein)” displayed a stoichiometry N of 9.
In data set [9], cos71 (cos 31-100), lacks binding site registered a Kd of 2040 nM.
cos100 (cos -20 to 80): the results for the Kd in [10], in [9] and in data set [11] were 850 nM, 500 nM and 790 nM, respectively.
